Assay results from patent US20240148882A1 (University of California, published 2024).

Experiments:
VEGF165 [1] = biological target: T1, VEGF165 (human, UniProt P15692 27-191); experiment: competition ELISA (unbound VEGF); multivalent HyA conjugate
T1 chain: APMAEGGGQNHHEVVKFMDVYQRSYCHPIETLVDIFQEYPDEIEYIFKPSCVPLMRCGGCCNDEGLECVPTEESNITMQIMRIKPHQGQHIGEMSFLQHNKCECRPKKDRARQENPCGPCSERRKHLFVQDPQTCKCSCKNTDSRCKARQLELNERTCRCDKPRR

VEGF165 [2] = biological target: T1, VEGF165; experiment: competition ELISA (unbound VEGF)
VEGF165 [3] = biological target: T1, VEGF165; experiment: ELISA; multivalent CMC conjugate
VEGF165 [4] = biological target: T2, VEGF165 (human, UniProt P15692-4 27-191); experiment: cell-based or functional assay
VEGF165 [5] = biological target: T2, VEGF165; experiment: binding competition ELISA (VEGF165 Quantikine): free VEGF165 captured by the plate antibody
Procedure: The mvsFlt conjugates were analyzed using a VEGF₁₆₅ Quantikine Sandwich ELISA (R&D Systems) to examine the effect of HyA conjugation on sFlt inhibition of VEGF₁₆₅. The assay was carried out according to the manufacturer's instructions. Briefly, VEGF₁₆₅ was added to PBS with varying concentrations of sFlt or mysFlt. Free VEGF₁₆₅ that bound to the capture antibodies on the plate surface were detected using a horseradish peroxidase conjugated detection antibody and quantified using a spectrophotometer at 450 nm.

VEGF165 [6] = biological target: T1, VEGF165; experiment: ELISA
[7] = biological target: soluble fms-like tyrosine kinase-1 (sFlt), unconjugated (UniProt P17948); experiment: cell-based or functional assay
[8] = biological target: T3, mvsFlt 650 kDa LCR (multivalent sFlt-hyaluronic acid conjugate, low conjugation ratio), P17948
T3 chain: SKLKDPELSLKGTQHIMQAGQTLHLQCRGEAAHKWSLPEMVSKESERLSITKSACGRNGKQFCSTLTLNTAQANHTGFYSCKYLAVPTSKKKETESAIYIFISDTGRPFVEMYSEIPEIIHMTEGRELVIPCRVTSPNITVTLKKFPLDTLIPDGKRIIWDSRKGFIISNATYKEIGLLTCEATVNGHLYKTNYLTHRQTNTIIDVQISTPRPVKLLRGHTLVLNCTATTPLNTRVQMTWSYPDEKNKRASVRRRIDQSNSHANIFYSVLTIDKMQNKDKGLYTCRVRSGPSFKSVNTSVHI

B1: conjugated multivalent scFv anti-VEGF antibody (31 scFv per 860 kDa hyaluronic acid) (other)
scFv: MEIVMTQSPSTLSASVGDRVIITCQASEIIHSWLAWYQQKPGKAPKLLIYLASTLASGVPSRFSGSGSGAEFTLTISSLQPDDFATYYCQNVYLASTNGANFGQGTKLTVLGGGGGSGGGGSGGGGSGGGGSEVQLVESGGGLVQPGGSLRLSCTASGFSLTDYYYMTWVRQAPGKGLEWVGFIDPDDDPYYATWAKGRFTISRDNSKNTLYLQMNSLRAEDTAVYYCAGGDHNSGWGLDIWGQGTLVTVSSSPSTPPTPSPSTPPGGCDDDDKHHHHHH
modifications: covalently conjugated to 860 kDa hyaluronic acid
- IC50 (VEGF165 [1]): 47.7 nM

B2: single-chain variable fragment (scFv) anti-VEGF antibody, unconjugated (scFv)
scFv: B1 scFv
- IC50 (VEGF165 [2]): 89.8 nM

B3: conjugated multivalent VHH anti-VEGF antibody (28 VHH per 860 kDa hyaluronic acid) (other)
VHH: SNADVQLVESGGGLVQPGGSLRLSCAASGRTFSSYSMGWFRQAPGKEREFVVAISKGGYKYDAVSLEGRFTISRDNAKNTVYLQINSLRPEDTAVYYCASSRAYGSSRLRLADTYEYWGQGTLVTVSSSPSTPPTPSPSTPPGGCDDDDKHHHHHH
modifications: covalently conjugated to 860 kDa hyaluronic acid
- IC50 (VEGF165 [1]): 812 nM

B4: anti-VEGF VHH-CMC conjugate (~17 VHH per ~700 kDa carboxymethylcellulose) (other)
VHH: B3 VHH
modifications: covalently conjugated to ~700 kDa carboxymethylcellulose
- IC50 (VEGF165 [3]): 8800 nM

B5: soluble fms-like tyrosine kinase-1 (sFlt), unconjugated (receptor, UniProt P17948 27-328, looked up)
chain: T3 chain
notes: domain: first 3 Ig-like extracellular domains; Expressed in High Five insect cells, about 50 kDa; also called recombinant sFlt; soluble Flt-1 receptor; not shown: tag implied by Ni-NTA purification, not described for the tested protein (the ex)
- IC50, HUVEC Survival (VEGF165 [4]): 0.0393 µg/mL
- IC50 (VEGF165 [5]): 0.0038 µg/mL

B6: mvsFlt 1 MDa LCR (multivalent sFlt-hyaluronic acid conjugate, low conjugation ratio) (other, UniProt P17948 27-328, looked up)
chain: T3 chain
modifications: thiolated with 2-iminothiolane and linked through EMCH maleimide to 1 MDa hyaluronic acid
notes: domain: first 3 Ig-like extracellular domains; Protein-polymer conjugate; 10:1 sFlt:HyA feed ratio; final sFlt:HyA 5.2 by SEC-MALS; not shown: tag implied by Ni-NTA purification, not described
- IC50, HUVEC Survival (VEGF165 [4]): 0.0449 µg/mL
- IC50 (VEGF165 [5]): 0.0022 µg/mL

B7: mvsFlt 650 kDa LCR (multivalent sFlt-hyaluronic acid conjugate, low conjugation ratio) (other, UniProt P17948 27-328, looked up)
chain: T3 chain
modifications: thiolated with 2-iminothiolane and linked through EMCH maleimide to 650 kDa hyaluronic acid
notes: domain: first 3 Ig-like extracellular domains; Protein-polymer conjugate; 10:1 sFlt:HyA feed ratio; final sFlt:HyA 5.3 by SEC-MALS; also called 650 kDa LCR mvsFlt; not shown: tag implied by Ni-NTA purification, not described
- IC50, HUVEC Survival (VEGF165 [4]): 0.0417 µg/mL
- IC50 (VEGF165 [5]): 0.0039 µg/mL

B8: mvsFlt 300 kDa HCR (multivalent sFlt-hyaluronic acid conjugate, high conjugation ratio) (other, UniProt P17948 27-328, looked up)
chain: T3 chain
modifications: thiolated with 2-iminothiolane and linked through EMCH maleimide to 300 kDa hyaluronic acid
notes: domain: first 3 Ig-like extracellular domains; Protein-polymer conjugate; 30:1 sFlt:HyA feed ratio; final sFlt:HyA 15.4 by SEC-MALS; not shown: tag implied by Ni-NTA purification, not described
- IC50, HUVEC Survival (VEGF165 [4]): 0.0444 µg/mL
- IC50 (VEGF165 [5]): 0.0047 µg/mL

B9: mvsFlt 300 kDa LCR (multivalent sFlt-hyaluronic acid conjugate, low conjugation ratio) (other, UniProt P17948 27-328, looked up)
chain: T3 chain
modifications: thiolated with 2-iminothiolane and linked through EMCH maleimide to 300 kDa hyaluronic acid
notes: domain: first 3 Ig-like extracellular domains; Protein-polymer conjugate; 10:1 sFlt:HyA feed ratio; final sFlt:HyA 7.9 by SEC-MALS; not shown: tag implied by Ni-NTA purification, not described
- IC50, HUVEC Survival (VEGF165 [4]): 0.0469 µg/mL
- IC50 (VEGF165 [5]): 0.0045 µg/mL

B10: mvsFlt 1 MDa HCR (multivalent sFlt-hyaluronic acid conjugate, high conjugation ratio) (other, UniProt P17948 27-328, looked up)
chain: T3 chain
modifications: thiolated with 2-iminothiolane and linked through EMCH maleimide to 1 MDa hyaluronic acid
notes: domain: first 3 Ig-like extracellular domains; Protein-polymer conjugate; 30:1 sFlt:HyA feed ratio; final sFlt:HyA 14.1 by SEC-MALS; not shown: tag implied by Ni-NTA purification, not described
- IC50, HUVEC Survival (VEGF165 [4]): 0.0454 µg/mL
- IC50 (VEGF165 [5]): 0.0033 µg/mL

B11: mvsFlt 650 kDa HCR (multivalent sFlt-hyaluronic acid conjugate, high conjugation ratio) (other, UniProt P17948 27-328, looked up)
chain: T3 chain
modifications: thiolated with 2-iminothiolane and linked through EMCH maleimide to 650 kDa hyaluronic acid
notes: domain: first 3 Ig-like extracellular domains; Protein-polymer conjugate; 30:1 sFlt:HyA feed ratio; final sFlt:HyA 17.1 by SEC-MALS; not shown: tag implied by Ni-NTA purification, not described
- IC50, HUVEC Survival (VEGF165 [4]): 0.0432 µg/mL
- IC50 (VEGF165 [5]): 0.002 µg/mL

B12: single-domain camelid (VHH) anti-VEGF antibody, unconjugated (VHH)
VHH: DVQLVESGGGLVQPGGSLRLSCAASGRTFSSYSMGWFRQAPGKEREFVVAISKGGYKYDAVSLEGRFTISRDNAKNTVYLQINSLRPEDTAVYYCASSRAYGSSRLRLADTYEYWGQGTLVTVSS
- IC50 (VEGF165 [2]): 758 nM
- IC50 (VEGF165 [6]): 761 nM

B13: matrix metalloproteinase-7 (MMP-7) (protein)
chain: YSLFPNSPKWTSKVVTYRIVSYTRDLPHITVDRLVSKALNMWGKEIPLHFRKVVWGTADIMIGFARGAHGDSYPFDGPGNTLAHAFAPGTGLGGDAHFDEDERWTDGSSLGINFLYAATHELGHSLGMGHSSDPNAVMYPTYGNGDPQNFKLSQDDIKGIQKLYGKRSNSRKK
- protein remaining detectable after 12 h with MMP-7 at 1:1 molar ratio of MMP-7 to sFlt (SDS-PAGE, silver stain) [7]: 6.8%
- protein remaining detectable after 12 h with MMP-7 at 1:4 molar ratio of MMP-7 to sFlt (SDS-PAGE, silver stain) [7]: 34%
- protein remaining detectable after 12 h with MMP-7 at 1:1 molar ratio of MMP-7 to sFlt (SDS-PAGE, silver stain) [8]: 34.8±1.8% of mvsFlt
- protein remaining detectable after 12 h with MMP-7 at 1:4 molar ratio of MMP-7 to sFlt (SDS-PAGE, silver stain) [8]: detectable mvsFlt at 74.8±4.9%
